Experimental data as given in patent US20160083466A1 (Regeneron, published 2016).

B1: H4H10871P (antibody, human IgG4, V domains shown)
VH: QVQLVQSGAEVMKPGASVKVSCKSSDFAFTTYGISWVRQAPGQGLEWMGWISAYNGNTNYEQRFQGRITMTTDTSTTTVYMELRSLRSDDTAVYYCARDPDYCSSNTCSDAFDLWGQGTMVTVSS
VL: DIQMTQSPSSLSASVRDRVTITCRASQGITNYLAWYQQKPGKVPKVLIYAASTLQSGVPSRFSGSGSGTEFTLAISSLQPEDVATYFCQQYGSAPWTFGQGTKVEIK
B2: H4H10863P (antibody, human IgG4, V domains shown)
VH: QVQLVQSGAEVKKPGASVKVSCKASGYTFSSYGISWVRQAPGQGLEWMGWISAYNDNTQYAQKFQGRVTMTTDTSTSTAYMELRSLRSDDTAVYYCARVPLQWFGESFDHWGQGTLVTVSS
VL: DIQMTQSPSSLSASVGDRVTITCRASQDINNYLNWFQQKPGKAPKLLIFSTSSLQSGVPSRFSGSGSGTDFTLTISSLQSEDFATYYCQQTFITPLTFGGGTKVEIK
B3: H4H10876P (antibody, human IgG4, V domains shown)
VH: QVQLVQSGAEVKKPGASVKVSCKASEYTFSNYGISWVRQAPGQGLEWLGWIGAYSGFTKYAQKVQDRITMTTDASTTTAYMELRNLRSDDTAVYYCARVGTGTDSYFDFWGQGTLVTVSS
VL: DIQMTQSPSSLSASVGDRVTITCRASQNINSHLNWYQQKPGKAPKLLIYTASSLQSGVPLRFSGSGSGTDFTLTISSLQPEDFGIYICQQTYITPLTFGGGTKVEIK
B4: H4H10883P (antibody, human IgG4, V domains shown)
VH: QVQLQESGPGLVKSSETLSLTCTVSGGSISSYYWSWIRQPPGKGLEWIGFIYYSGSTNYNPSLKSRVTFSVDTSKNHFSLKLNSVTATDTAVYYCARHYFDSGTYELGPFDYWGQGTLVTVSS
VL: DIVMTQSPDSLAVSLGERATINCKSSQNILLTSSNKNYLTWYQQKPGQPPKLLIYWASIRESGVPDRFSGSGSGTDFTLTISSLQAEDVALYFCQQYYITPFTFGPGTKVDIK
B5: H4H10905P (antibody, human IgG4, V domains shown)
VH: QVQLVQSGAEVKKPGTSVKVSCKASGYTFTNYGISWVRQAPGQGLEWLGWISAYNDNTDYAQKLQARVTMTTDTFTSTAYMDLRSLRSDDTAVYYCARVPITGTTSSFDFWGQGTLVTVSS
VL: DIQMTQSPSSLSASVGDRVTISCRASQTIYSYLNWFQQKPGKAPKLLIYDASSLQSGVPSRFSGSGSGTHFTLTISSLQPEDFATYFCQQTYSTPLTFGGGTKVEIK

Molecular target: T1, human IL-25 expressed with a C-terminal myc-myc-hexahistidine tag (human)
T1 construct: also called human IL-25-MMH; hIL-25-MMH
T1 chain: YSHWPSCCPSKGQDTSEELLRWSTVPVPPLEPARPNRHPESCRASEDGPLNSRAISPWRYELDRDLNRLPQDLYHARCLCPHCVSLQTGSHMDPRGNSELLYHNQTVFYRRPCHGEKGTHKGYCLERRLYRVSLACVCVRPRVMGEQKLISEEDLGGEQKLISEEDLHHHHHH
Assay: SPR Biacore, captured mAb, 25°C;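 on 100 nM Human IL-25-MMH Bound (RU): biacore 4000 SPR with IL-25-MMH as analyte over purified anti-IL-25 antibodies, association and dissociation rates derived from fitting sensorgrams to a 1:1 binding model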;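 on 100 nM Monkey IL-25-MMH Bound (RU): Real-time surface plasmon resonance on a Biacore 4000, with IL-25-MMH binding to purified anti-IL-25 antibodies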
Protocol: (§1) Equilibrium dissociation constants (KD values) for IL-25 binding to purified anti-IL-25 antibodies were determined using a real-time surface plasmon resonance biosensor assay on a Biacore 4000 instrument (GE Healthcare). […] All the IL-25 reagents were expressed with a C-terminal myc-myc-hexahistidine tag (referred to herein as “IL-25-MMH”). […] Kinetic association (kₐ) and dissociation (kd) rate constants were determined by fitting the real-time sensorgrams to a 1:1 binding model using Scrubber 2.0c curve fitting software.

Row | Binder | 100 nM Human IL-25-MMH Bound (RU) | Kd | koff | kon | t½
1 | B1 | 38 RU | 0.0851 nM | 6.38e-05 s⁻¹ | 749000 M⁻¹ s⁻¹ | 181 min
2 | B2 | 34 RU | 0.279 nM | 7.25e-05 s⁻¹ | 260000 M⁻¹ s⁻¹ | 159 min
3 | B3 | 45 RU | 0.124 nM | 4.78e-05 s⁻¹ | 386000 M⁻¹ s⁻¹ | 242 min
4 | B4 | 56 RU | ≤ 0.0142 nM | ≤ 1e-05 s⁻¹ | 706000 M⁻¹ s⁻¹ | 1160 min
5 | B5 | 49 RU | 0.228 nM | 0.000109 s⁻¹ | 478000 M⁻¹ s⁻¹ | 106 min

Molecular target: T1, human IL-25 expressed with a C-terminal …
Assay: SPR Biacore, captured mAb, 37°C

Row | Binder | 100 nM Human IL-25-MMH Bound (RU) | Kd | koff | kon | t½
6 | B1 | 49 RU | 0.0276 nM | 3.18e-05 s⁻¹ | 1.15e+06 M⁻¹ s⁻¹ | 363 min
7 | B2 | 46 RU | 0.128 nM | 7.78e-05 s⁻¹ | 606000 M⁻¹ s⁻¹ | 149 min
8 | B3 | 60 RU | 0.0944 nM | 5.93e-05 s⁻¹ | 628000 M⁻¹ s⁻¹ | 195 min
9 | B4 | 74 RU | 0.0304 nM | 4.8e-05 s⁻¹ | 1.58e+06 M⁻¹ s⁻¹ | 241 min
10 | B5 | 55 RU | 0.149 nM | 0.00012 s⁻¹ | 809000 M⁻¹ s⁻¹ | 96 min

Molecular target: T2, monkey IL-25 expressed with a C-terminal myc-myc-hexahistidine tag (M. fascicularis (cynomolgus monkey))
T2 construct: also called monkey IL-25-MMH; MfIL-25-MMH
T2 chain: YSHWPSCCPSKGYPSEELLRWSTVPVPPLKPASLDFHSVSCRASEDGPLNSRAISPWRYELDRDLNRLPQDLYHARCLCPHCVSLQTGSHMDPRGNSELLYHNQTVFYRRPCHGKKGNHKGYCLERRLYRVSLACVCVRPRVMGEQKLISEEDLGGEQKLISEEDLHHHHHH
Assay: SPR Biacore, captured mAb, 25°C;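 on 100 nM Human IL-25-MMH Bound (RU): biacore 4000 SPR with IL-25-MMH as analyte over purified anti-IL-25 antibodies, association and dissociation rates derived from fitting sensorgrams to a 1:1 binding model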;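 on 100 nM Monkey IL-25-MMH Bound (RU): Real-time surface plasmon resonance on a Biacore 4000, with IL-25-MMH binding to purified anti-IL-25 antibodies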
Protocol: as §1

Row | Binder | 100 nM Monkey IL-25-MMH Bound (RU) | Kd | koff | kon | t½
11 | B1 | 42 RU | 0.0965 nM | 6.06e-05 s⁻¹ | 628000 M⁻¹ s⁻¹ | 191 min
12 | B2 | 39 RU | 0.199 nM | 6.83e-05 s⁻¹ | 343000 M⁻¹ s⁻¹ | 169 min
13 | B3 | 51 RU | 0.218 nM | 7.18e-05 s⁻¹ | 329000 M⁻¹ s⁻¹ | 161 min
14 | B4 | 58 RU | ≤ 0.00965 nM | ≤ 1e-05 s⁻¹ | 1.04e+06 M⁻¹ s⁻¹ | 1160 min
15 | B5 | 54 RU | 0.186 nM | 7.77e-05 s⁻¹ | 417000 M⁻¹ s⁻¹ | 149 min
